From patent US20180208648A1 (SCHOLAR ROCK, published 2018)
One block for each binder: values may come before it.

Assays:
human proGDF11 [1] = molecular target: T1, human proGDF11 (human, UniProt O95390 25-407, biotinylated (NHS-PEG4-Biotin), site not stated); experiment: BLI (ForteBio Octet)
T1 construct: Dimeric complex; also called hu proGDF11; GDF11 prodomain complex
T1 sequence: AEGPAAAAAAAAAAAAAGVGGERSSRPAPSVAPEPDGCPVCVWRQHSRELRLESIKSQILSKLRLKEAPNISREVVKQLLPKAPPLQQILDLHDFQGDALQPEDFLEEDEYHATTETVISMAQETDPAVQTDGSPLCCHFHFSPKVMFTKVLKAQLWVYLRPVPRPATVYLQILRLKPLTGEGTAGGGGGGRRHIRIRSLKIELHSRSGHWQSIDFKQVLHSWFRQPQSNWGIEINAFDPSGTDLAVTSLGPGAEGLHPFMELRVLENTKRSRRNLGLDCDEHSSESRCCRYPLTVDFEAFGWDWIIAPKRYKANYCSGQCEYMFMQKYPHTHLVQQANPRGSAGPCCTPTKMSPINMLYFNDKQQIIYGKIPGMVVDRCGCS

human proGDF11 [2] = molecular target: T1, human proGDF11; experiment: cell-based or functional assay
murine proGDF11 [3] = molecular target: T2, murine proGDF11 (mouse, UniProt Q9Z1W4 25-405, biotinylated, site not stated); experiment: cell-based or functional assay
T2 sequence: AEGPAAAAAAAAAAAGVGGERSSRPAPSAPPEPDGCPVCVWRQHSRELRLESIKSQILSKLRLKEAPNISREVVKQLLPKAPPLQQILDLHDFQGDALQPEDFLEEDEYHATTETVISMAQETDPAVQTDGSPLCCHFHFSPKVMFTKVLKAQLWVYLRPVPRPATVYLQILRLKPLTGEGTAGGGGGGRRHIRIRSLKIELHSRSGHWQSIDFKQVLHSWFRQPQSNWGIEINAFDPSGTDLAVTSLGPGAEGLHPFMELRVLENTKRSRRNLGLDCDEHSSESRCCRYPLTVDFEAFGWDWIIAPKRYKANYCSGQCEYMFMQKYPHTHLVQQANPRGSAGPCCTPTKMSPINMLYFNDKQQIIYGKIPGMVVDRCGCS

[4] = molecular target: T3, human prodomain GDF11 ARM8 (human, biotinylated, site not stated); experiment: ELISA, biotinylated antigen on neutravidin plate
T3 construct: GDF11 prodomain having the GDF8 arm domain; also called human GDF11 ARM8 prodomain
T3 chain: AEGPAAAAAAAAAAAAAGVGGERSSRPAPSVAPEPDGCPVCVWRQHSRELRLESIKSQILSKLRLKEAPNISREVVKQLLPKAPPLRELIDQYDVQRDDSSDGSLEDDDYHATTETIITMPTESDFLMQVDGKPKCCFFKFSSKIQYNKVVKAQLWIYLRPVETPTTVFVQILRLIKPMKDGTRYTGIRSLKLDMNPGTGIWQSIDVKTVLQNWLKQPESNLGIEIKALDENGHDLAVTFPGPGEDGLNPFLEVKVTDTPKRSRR
Excerpt: (§1) Candidate clones were converted to human IgG1 format. Full-length IgG antibodies were further characterized by ELISA for binding to the human and murine pro- and latent-forms of myostatin and GDF11. Antibodies were also screened for binding to the Myostatin prodomain (SEQ ID NO: 85), proTGFDβ1 (human and murine), the mature growth factor of Myostatin (SEQ ID NO: 89), the GDF11 mature growth factor (SEQ ID NO: 90), and proActivin A (SEQ ID NO: 84). Chimeric constructs which swapped portions of the prodomains of Myostatin and GDF11 were designed and produced. For example proGDF11 arm8 (SEQ ID NO: 112) refers to GDF11 having the GDF8 arm domain, and prodomain GDF11 arm8 (SEQ ID NO: 114) refers to the GDF11 prodomain having the GDF8 arm domain. These chimeric proteins were assayed for interaction with screening antibodies by ELISA and allowed for the assessment of binding of antibodies to the ARM or straight jacket portions of the GDF11 prodomain complex. Antibodies were selected based on their cross-reactivity with pro- and latent human and murine GDF11, with no interactions with GDF8, Activin, or TGFβ proteins. Activin A is a homodimer of inhibin-beta A subunits. For example, Inhibin-beta A can heterodimerize with other proteins to produce different Activin proteins.
(§2) Enzyme-linked immunosorbent assay (ELISA) analysis is carried out to assess antibody binding. 96-well ELISA assay plates are coated with neutravidin, a deglycosylated version of streptavidin with a more neutral pH. Target proteins are expressed with or without histidine (His) tags and subjected to biotinylation. Biotinylated target proteins are incubated with neutravidin-coated ELISA assay plates for two hours at room temperature and unbound proteins are removed by washing three times with wash buffer (either 25 mM Tris, 150 mM NaCl, 0.05% TWEEN®-20, or 20 mM Hepes pH 7.5, 500 mM NaCl, 0.05% TWEEN®-20). Primary antibodies being tested are added to each well and allowed to incubate at room temperature for 1 hour or more. Unbound antibody is then removed by washing three times with wash buffer. Secondary antibodies capable of binding to primary antibodies being tested and conjugated with detectable labels are then incubated in each well for 30 minutes at room temperature. Unbound secondary antibodies are removed by washing three times with wash buffer.

human proGDF8 = molecular target: T4, human proGDF8 (human, UniProt O14793 24-375, biotinylated, site not stated); experiment: ELISA, biotinylated antigen on neutravidin plate
T4 construct: also called hu proGDF8; human proMyostatin
T4 sequence: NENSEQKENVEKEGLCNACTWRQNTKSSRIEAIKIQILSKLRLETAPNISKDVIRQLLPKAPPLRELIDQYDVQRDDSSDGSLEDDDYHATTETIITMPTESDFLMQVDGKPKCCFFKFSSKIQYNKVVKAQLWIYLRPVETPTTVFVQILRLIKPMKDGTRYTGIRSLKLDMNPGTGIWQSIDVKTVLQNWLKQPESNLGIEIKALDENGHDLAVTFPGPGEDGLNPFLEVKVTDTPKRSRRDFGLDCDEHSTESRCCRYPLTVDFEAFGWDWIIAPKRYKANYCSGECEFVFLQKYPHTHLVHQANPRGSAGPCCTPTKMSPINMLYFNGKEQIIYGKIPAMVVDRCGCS
Excerpt: as §1, §2

human proGDF11 [5] = molecular target: T1, human proGDF11; experiment: cell-based or functional assay; remark: listed apart in the source
human proGDF11 [6] = molecular target: T1, human proGDF11; experiment: cell-based or functional assay; remark: listed apart in the source
human latent GDF11 = molecular target: T5, human latent GDF11 (human, UniProt O95390 25-407, biotinylated, site not stated); experiment: BLI (ForteBio Octet)
T5 construct: also called hu latent GDF11
T5 sequence: T1 sequence

human proActivin A = molecular target: T6, human proActivin A (human, UniProt P08476 21-426, biotinylated (immobilized on streptavidin biosensors), site not stated); experiment: BLI (ForteBio Octet QKe), antigen on streptavidin biosensor, antibody in solution
T6 construct: also called human Activin A; Inhibin-beta A pro-protein
T6 sequence: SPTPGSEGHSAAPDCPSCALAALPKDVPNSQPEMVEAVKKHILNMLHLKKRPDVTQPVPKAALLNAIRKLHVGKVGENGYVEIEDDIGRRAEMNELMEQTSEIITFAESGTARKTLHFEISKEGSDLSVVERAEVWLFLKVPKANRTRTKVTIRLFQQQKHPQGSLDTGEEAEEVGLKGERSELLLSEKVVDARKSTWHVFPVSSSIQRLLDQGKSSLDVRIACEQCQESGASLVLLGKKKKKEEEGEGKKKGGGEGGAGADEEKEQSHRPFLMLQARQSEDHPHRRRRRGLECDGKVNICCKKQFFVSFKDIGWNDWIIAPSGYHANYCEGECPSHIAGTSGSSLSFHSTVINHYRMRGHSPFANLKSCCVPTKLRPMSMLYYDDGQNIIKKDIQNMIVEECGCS

murine proGDF11 [7] = molecular target: T2, murine proGDF11; experiment: BLI (ForteBio Octet)
human proGDF11 ARM8 = molecular target: T7, human proGDF11 ARM8 (human, biotinylated, site not stated); experiment: ELISA, biotinylated antigen on neutravidin plate
T7 construct: GDF11 having the GDF8 arm domain
T7 chain: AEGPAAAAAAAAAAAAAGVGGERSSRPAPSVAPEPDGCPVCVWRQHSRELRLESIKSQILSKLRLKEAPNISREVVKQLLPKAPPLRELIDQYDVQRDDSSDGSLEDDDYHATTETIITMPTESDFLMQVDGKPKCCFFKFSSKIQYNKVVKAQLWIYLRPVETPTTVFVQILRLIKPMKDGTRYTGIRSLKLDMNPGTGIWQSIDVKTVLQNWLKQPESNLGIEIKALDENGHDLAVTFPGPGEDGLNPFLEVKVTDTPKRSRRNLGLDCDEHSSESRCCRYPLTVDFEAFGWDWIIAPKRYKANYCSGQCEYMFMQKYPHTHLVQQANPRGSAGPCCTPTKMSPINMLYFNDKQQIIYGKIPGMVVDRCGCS
Excerpt: as §1, §2

human mature GDF11 = molecular target: T8, human mature GDF11 (human, UniProt O95390 299-407, biotinylated, site not stated); experiment: ELISA, biotinylated antigen on neutravidin plate
T8 construct: Growth factor domain; also called GDF11 mature growth factor
T8 sequence: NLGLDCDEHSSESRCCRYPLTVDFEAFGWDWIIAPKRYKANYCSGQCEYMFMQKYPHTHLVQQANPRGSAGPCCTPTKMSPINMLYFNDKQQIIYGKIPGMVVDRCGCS
Excerpt: as §1, §2

B3: GDF11 Inh-3 (antibody, V domains shown)
VH: QVQLVQSGGGVVQPGRSLRLSCAASGFTFSSYAMHWVRQAPGKGLEWVAVISYDGSNEYYADSVKGRFTISRDNSKNTLYLQMNSLRAEDTAVYYCAKDFWSGYPQYNWFDPWGQGTLVTVSS
VL: EIVMTQSPATLSLSAGERATLSCRASQSVSNYLAWYQQKPGQAPRLLIYDASNRATGIPARFSGSGSGTDFTLTISSLEPEDFAVYYCQQYGSAPLTFGGGTNVEIKR
notes: also called Clone GDF11 Inh-3
Kd (human proGDF11 [1]): 0.71 nM
Kd (murine proGDF11 [7]): 0.937 nM
Human proGDF11 % Inhibition (proGDF11 activation assay, CAGA luciferase reporter in 293T cells) (human proGDF11 [2]): 87%
Murine proGDF11 % inhibition (proGDF11 activation assay, CAGA luciferase reporter in 293T cells) (murine proGDF11 [3]): 88%
binding result [4]: no binding
binding result (human proGDF8): no binding
binding result (human proGDF11 ARM8): no binding
binding result (human mature GDF11): no binding

B4: GDF11 Inh-1 (antibody, V domains shown)
VH: EVQLLESRGGLVQPGRSLRLSCAASGFTFDDYAMHWVRQAPGKGLEWVSGISWNSGSIGYADSVKGRFTISRDNTKNSLYLQMNSLRAEDTGVYYCAREVTGDLDYWGQGTLVTVSS
VL: EIVMTQSPGTLSLSPGERATLSCRASQFLSSTYLAWYQQRPGQAPRLLIYSASNRATGVPDRFSGSGSGTDFTLKISRVEAEDVGVYYCMQATHWPYTFGQGTKLEIKR
notes: also called Clone GDF11 Inh-1
EC50, proGDF11 activation assay at 50 nM proGDF11 (human proGDF11 [6]): 87.1 nM
Kd (human proGDF11 [1]): 0.49 nM
Kd (murine proGDF11 [7]): 0.848 nM
Human proGDF11 % Inhibition (proGDF11 activation assay, CAGA luciferase reporter in 293T cells) (human proGDF11 [2]): 91%
Murine proGDF11 % inhibition (proGDF11 activation assay, CAGA luciferase reporter in 293T cells) (murine proGDF11 [3]): 80%
binding result (human mature GDF11): no binding

B5: GDF11 Inh-7 (antibody, V domains shown)
VH: EVQLVQSGGGLVQPGGSLRLSCAASGFTFSSYSMNWVRQAPGKGLEWVSYISSSSSTIYYADSVKGRFTISRDNAKNSLYLQMNSLRAEDTAVYYCARDGIYYDSSGYYDLFDYWGQGTLVTVSS
VL: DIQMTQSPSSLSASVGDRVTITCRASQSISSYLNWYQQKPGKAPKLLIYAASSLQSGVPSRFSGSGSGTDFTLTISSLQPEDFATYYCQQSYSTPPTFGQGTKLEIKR
notes: also called Clone GDF11 Inh-7
Kd (human proGDF11 [1]): 2.12 nM
Human proGDF11 % Inhibition (proGDF11 activation assay, CAGA luciferase reporter in 293T cells) (human proGDF11 [2]): 74%
Murine proGDF11 % inhibition (proGDF11 activation assay, CAGA luciferase reporter in 293T cells) (murine proGDF11 [3]): 53%
binding result (human mature GDF11): no binding

The next lines start with the values.

Kd (human proGDF11 [1]): 0.75 nM
Human proGDF11 % Inhibition (proGDF11 activation assay, CAGA luciferase reporter in 293T cells) (human proGDF11 [2]): 77%
Murine proGDF11 % inhibition (proGDF11 activation assay, CAGA luciferase reporter in 293T cells) (murine proGDF11 [3]): 63%
binding result [4]: no binding
binding result (human proGDF8): no binding
B1: GDF11 Inh-6 (antibody, V domains shown)
VH: QVQLQESGPGLVKPSETLSLTCTVSGGSISSSSYYWGWVRQPPGKGLEWIGEIYHSGSTNYNPSLKSRVTISVDTSKNQFSLKLSSVTAADTAVYYCARVGTSWEYYFDYWGQGTLVTVSS
VL: DIQMTQSPASLSASVGDRVTITCRTSQHIINYLNWYQQRPGKAPNLLIYKASTLQSGVPSRFSGSGSGTHFTLTISSLQPEDFATYYCQQYQSYPITFGQGTRLEIKR
notes: also called Clone GDF11 Inh-6

EC50 (inhibition of proGDF11 activation; CAGA luciferase reporter in 293T cells after overnight proteolysis) (human proGDF11 [5]): ~30.3 nM
EC50, proGDF11 activation assay at 50 nM proGDF11 (human proGDF11 [6]): 30.1 nM
Kd (human proGDF11 [1]): < 0.001 nM
Kd (human latent GDF11): < 0.001 nM
Human proGDF11 % Inhibition (proGDF11 activation assay, CAGA luciferase reporter in 293T cells) (human proGDF11 [2]): 96%
Murine proGDF11 % inhibition (proGDF11 activation assay, CAGA luciferase reporter in 293T cells) (murine proGDF11 [3]): 90%
binding result (human proActivin A): no binding (tested: 50 µg/mL)
B2: GDF11 Inh-5 (antibody, V domains shown)
VH: EVQLVQSGAEVKKPGASVKVSCKASGYTFTGYYIYWVRQAPGQGLEWMGWIRPNSGDTNYAQKFQDRLTMTRDTSISTAYMELSRLRSDDTAVYYCAGNYDILTGYQAPLGYWGQGALVTVSS
VL: DIVLTQSPATLSVSPGERATLSCRASQRVISNYLAWYQQKPGQAPRLLIYGASSRATGIPDRFSGSGSGTDFTLSISRLEPEDFAVYYCQHYGPFGGGTKVEIKR
notes: also called Clone GDF11 Inh-5
